Assay [1] concerns the target feline herpes virus-1 (FHV-1) viral particle, K1 strain.
For assay [2] the target is unchanged. This is another data set of the same source.

Like-named read-outs stand apart in the source and are kept apart here.

B1: anti-FHV-1 chimeric antibody FH2 (antibody, V domains shown)
VH: QVTLKESGPGILQPSQTLSLTCSFSGFSLSTSGMGAGWIRQPSGKGLEWLAHIWWDDVKRYNPALKSRLTISKDTSSSQVFLKIASVDTADTATYFCVRSQIYFDYDGAWFPFWGQGTLVTVSA
VL: DIVLTQSPATLSVTPGDSVSLSCRASQSISNNLHWYQQKSHESPRLLIKYASQSISGIPSRFSGSGSGTDFTLSINSVETEDFGMYFCQQSNSWPHTFGAGTKLELKS
B1 registered a Minimum Effective Concentration for Neutralization in assay [1] of 1.95 µg/mL.

B2: mouse monoclonal antibody JH2 (antibody, V domains shown)
VH: QVTLKESGPGILQPSQTLSLTCSFSGFSLSTSGMGAGWIRQPSGKGLEWLAHIWWDDVKRYNPALKSRLTISKDTSSSQVFLKIASVDTADTATYFCVRSQIYFDYDGAWFPFWGQGTLVTVSA
VL: DIVLTQSPATLSVTPGDSVSLSCRASQSISNNLHWYQQKSHESPRLLIKYASQSISGIPSRFSGSGSGTDFTLSINSVETEDFGMYFCQQSNSWPHTFGAGTKLELK
As to B2, the Minimum Effective Concentration for Neutralization in assay [1] amounted to 1.25 µg/mL; in assay [2], 0.39 µg/mL.
